T1: N-cadherin (UniProt P19022 160-906, limits assumed)
T1 construct: whole, on cells
T1 sequence (looked up): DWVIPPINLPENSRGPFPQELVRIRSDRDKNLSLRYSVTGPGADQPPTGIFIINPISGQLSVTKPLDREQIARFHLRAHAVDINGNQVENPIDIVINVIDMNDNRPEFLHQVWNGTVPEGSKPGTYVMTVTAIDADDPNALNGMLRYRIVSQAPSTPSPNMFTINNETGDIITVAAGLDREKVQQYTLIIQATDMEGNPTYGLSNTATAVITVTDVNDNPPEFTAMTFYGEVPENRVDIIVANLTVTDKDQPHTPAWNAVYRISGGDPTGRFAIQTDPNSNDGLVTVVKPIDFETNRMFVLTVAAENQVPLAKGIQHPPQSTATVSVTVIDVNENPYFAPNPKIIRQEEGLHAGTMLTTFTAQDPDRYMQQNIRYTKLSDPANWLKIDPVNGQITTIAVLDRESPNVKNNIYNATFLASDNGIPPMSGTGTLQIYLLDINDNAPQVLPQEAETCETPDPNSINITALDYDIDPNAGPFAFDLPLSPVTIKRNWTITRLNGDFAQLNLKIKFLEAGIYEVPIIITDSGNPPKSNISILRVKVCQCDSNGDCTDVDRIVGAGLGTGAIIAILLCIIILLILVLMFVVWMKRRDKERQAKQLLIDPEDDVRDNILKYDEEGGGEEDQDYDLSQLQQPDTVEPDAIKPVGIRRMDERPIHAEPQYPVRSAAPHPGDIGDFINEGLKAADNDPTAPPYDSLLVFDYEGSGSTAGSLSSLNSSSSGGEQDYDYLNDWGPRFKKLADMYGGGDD


Legend:
LDLR = target: T2, LDLR (UniProt P01130 22-860, limits assumed); assay: immunofluorescence co-localization on cells
T2 construct: whole, on cells
T2 sequence (P01130 22-860 limits assumed): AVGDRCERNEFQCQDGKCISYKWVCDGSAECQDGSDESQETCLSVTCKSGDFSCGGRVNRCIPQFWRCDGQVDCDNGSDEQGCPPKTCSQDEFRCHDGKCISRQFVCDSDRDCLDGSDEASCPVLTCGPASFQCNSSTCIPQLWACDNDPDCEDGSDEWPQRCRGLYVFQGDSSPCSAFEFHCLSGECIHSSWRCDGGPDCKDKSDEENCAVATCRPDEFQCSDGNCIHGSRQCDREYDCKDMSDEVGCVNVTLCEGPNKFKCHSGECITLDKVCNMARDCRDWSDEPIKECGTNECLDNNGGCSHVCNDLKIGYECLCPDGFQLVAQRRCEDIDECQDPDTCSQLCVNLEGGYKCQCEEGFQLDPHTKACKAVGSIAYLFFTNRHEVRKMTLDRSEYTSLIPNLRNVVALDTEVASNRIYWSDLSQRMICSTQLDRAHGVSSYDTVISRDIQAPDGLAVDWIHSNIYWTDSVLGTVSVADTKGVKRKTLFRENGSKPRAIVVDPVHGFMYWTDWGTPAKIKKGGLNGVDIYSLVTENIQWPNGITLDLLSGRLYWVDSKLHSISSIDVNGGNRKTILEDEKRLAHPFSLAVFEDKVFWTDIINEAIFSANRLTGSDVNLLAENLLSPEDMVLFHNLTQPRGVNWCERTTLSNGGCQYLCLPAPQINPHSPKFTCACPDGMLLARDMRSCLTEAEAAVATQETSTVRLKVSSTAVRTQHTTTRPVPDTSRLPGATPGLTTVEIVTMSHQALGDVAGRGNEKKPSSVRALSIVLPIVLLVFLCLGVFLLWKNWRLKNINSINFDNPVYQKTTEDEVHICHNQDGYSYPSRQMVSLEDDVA

N-cadherin = target: T1, N-cadherin; assay: immunofluorescence co-localization on cells
[1] = target: T3, EGFR extracellular domain (with an amino acid sequence of 25-645) (human, UniProt P00533 25-645); assay: SPR, Biacore T200; EGFR extracellular domain on CM5 chip, rLZ-8 protein as analyte
T3 construct: range 25-645; Coupled on a CM5 chip; also called epidermal growth factor receptor extracellular domain; ligand (on the chip)

[2] = target: T3, EGFR extracellular domain (with an …); assay: SPR, Biacore T200; EGFR extracellular domain on CM5 chip
[3] = target: T3, EGFR extracellular domain (with an …); assay: EGFR affinity test (SPR)

| Binder | binding result (LDLR) | binding result (N-cadherin) | Kd [1] [nM] | koff [1] [s⁻¹] | kon [1] [M⁻¹ s⁻¹] | fold increase of affinity against rLZ-8 [2] [times] | fold increase of affinity equilibrium constant against rLZ-8 [3] [times] |
| --- | --- | --- | --- | --- | --- | --- | --- |
| recombinant immunoregulatory protein of Ganoderma lucidum (rLZ-8) (other, also called Lingzhi-8) MSDTALIFRLAWDVKKLSFDYTPNWGRGNPNNFIDTVTFPKVLTDKAYTYRVAVSGRNLGVKPSYAVESDGSQKVNFLEYNSGYGIADTNTIQVFVVDPDTNNDFIIAQWN | no binding | no binding | – | – | – | – | – |
| rLZ-8 (K16A/S18A/K41A/D45A) (other, Alanine mutant of rLZ-8, made by the same fermentation and purification as rLZ-8) MSDTALIFRLAWDVKALAFDYTPNWGRGNPNNFIDTVTFPAVLTAKAYTYRVAVSGRNLGVKPSYAVESDGSQKVNFLEYNSGYGIADTNTIQVFVVDPDTNNDFIIAQWN | – | – | 30600 | 0.00423 | 139 | – | – |
| rLZ-8 (K41D/K46E/K74E) (other, Mutant of rLZ-8) MSDTALIFRLAWDVKKLSFDYTPNWGRGNPNNFIDTVTFPDVLTDEAYTYRVAVSGRNLGVKPSYAVESDGSQEVNFLEYNSGYGIADTNTIQVFVVDPDTNNDFIIAQWN | – | – | 12.2 | 0.000431 | 35300 | – | – |
| rLZ-8 (R9A) (other, Alanine mutant of rLZ-8) MSDTALIFALAWDVKKLSFDYTPNWGRGNPNNFIDTVTFPKVLTDKAYTYRVAVSGRNLGVKPSYAVESDGSQKVNFLEYNSGYGIADTNTIQVFVVDPDTNNDFIIAQWN | – | – | 8.63 | 0.000528 | 61200 | – | – |
| rLZ-8 (D45A) (other, Alanine mutant of rLZ-8) MSDTALIFRLAWDVKKLSFDYTPNWGRGNPNNFIDTVTFPKVLTAKAYTYRVAVSGRNLGVKPSYAVESDGSQKVNFLEYNSGYGIADTNTIQVFVVDPDTNNDFIIAQWN | – | – | 620 | 0.000743 | 1200 | – | – |
| rLZ-8 (L17K) (other, Surface potential mutant of rLZ-8) MSDTALIFRLAWDVKKKSFDYTPNWGRGNPNNFIDTVTFPKVLTDKAYTYRVAVSGRNLGVKPSYAVESDGSQKVNFLEYNSGYGIADTNTIQVFVVDPDTNNDFIIAQWN | – | – | 7.49 | 7.56e-05 | 10100 | – | – |
| rLZ-8 (K16A/K41A) (other, Alanine mutant of rLZ-8) MSDTALIFRLAWDVKALSFDYTPNWGRGNPNNFIDTVTFPAVLTDKAYTYRVAVSGRNLGVKPSYAVESDGSQKVNFLEYNSGYGIADTNTIQVFVVDPDTNNDFIIAQWN | – | – | 1240 | 0.000273 | 220 | – | – |

More lines, in order of falling Kd [1], values ahead:

| binding result (LDLR) | binding result (N-cadherin) | Kd [1] [nM] | koff [1] [s⁻¹] | kon [1] [M⁻¹ s⁻¹] | fold increase of affinity against rLZ-8 [2] [times] | fold increase of affinity equilibrium constant against rLZ-8 [3] [times] | Binder |
| --- | --- | --- | --- | --- | --- | --- | --- |
| – | – | 489 | 0.00182 | 3720 | – | – | rLZ-8 (S18A) (other, Alanine mutant of rLZ-8) MSDTALIFRLAWDVKKLAFDYTPNWGRGNPNNFIDTVTFPKVLTDKAYTYRVAVSGRNLGVKPSYAVESDGSQKVNFLEYNSGYGIADTNTIQVFVVDPDTNNDFIIAQWN |
| – | – | 9.35 | 0.000614 | 65700 | – | – | rLZ-8 (K46E/K74E) (other, Mutant of rLZ-8) MSDTALIFRLAWDVKKLSFDYTPNWGRGNPNNFIDTVTFPKVLTDEAYTYRVAVSGRNLGVKPSYAVESDGSQEVNFLEYNSGYGIADTNTIQVFVVDPDTNNDFIIAQWN |
| – | – | 7.36 | 0.000432 | 58700 | – | – | rLZ-8 (D20H) (other, Surface potential mutant of rLZ-8) MSDTALIFRLAWDVKKLSFHYTPNWGRGNPNNFIDTVTFPKVLTDKAYTYRVAVSGRNLGVKPSYAVESDGSQKVNFLEYNSGYGIADTNTIQVFVVDPDTNNDFIIAQWN |
| – | – | 2.25 | 0.000457 | 203000 | 2.3 | 4 | rLZ-8 (D70K) (other, Surface potential mutant of rLZ-8) MSDTALIFRLAWDVKKLSFDYTPNWGRGNPNNFIDTVTFPKVLTDKAYTYRVAVSGRNLGVKPSYAVESKGSQKVNFLEYNSGYGIADTNTIQVFVVDPDTNNDFIIAQWN |
| – | – | 1.53 | 0.000329 | 215000 | 6 | – | rLZ-8 (L17K/D70K) (other, Surface potential mutant of rLZ-8) MSDTALIFRLAWDVKKKSFDYTPNWGRGNPNNFIDTVTFPKVLTDKAYTYRVAVSGRNLGVKPSYAVESKGSQKVNFLEYNSGYGIADTNTIQVFVVDPDTNNDFIIAQWN |
